Measured values as given in patent US20110262949A1.

T1: wt β2 (E. coli class I ribonucleotide reductase subunit β2), P69924
T1 chain: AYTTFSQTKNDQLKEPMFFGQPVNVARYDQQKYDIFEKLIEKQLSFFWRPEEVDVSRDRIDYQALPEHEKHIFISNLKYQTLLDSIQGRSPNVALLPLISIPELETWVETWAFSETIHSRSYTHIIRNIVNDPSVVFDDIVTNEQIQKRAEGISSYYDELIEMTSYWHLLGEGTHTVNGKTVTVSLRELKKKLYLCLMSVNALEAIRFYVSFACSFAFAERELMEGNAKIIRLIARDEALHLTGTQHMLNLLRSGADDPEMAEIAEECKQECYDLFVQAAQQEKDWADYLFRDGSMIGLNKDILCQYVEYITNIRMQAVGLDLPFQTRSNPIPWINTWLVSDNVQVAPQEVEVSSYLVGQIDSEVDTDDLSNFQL

B1: Y730NH2Y-α2 (E. coli class I ribonucleotide reductase subunit α2 with 3-aminotyrosine at residue 730) (protein)
chain: MNQNLLVTKRDGSTERINLDKIHRVLDWAAEGLHNVSISQVELRSHIQFYDGIKTSDIHETIIKAAADLISRDAPDYQYLAARLAIFHLRKKAYGQFEPPALYDHVVKMVEMGKYDNHLLEDYTEEEFKQMDTFIDHDRDMTFSYAAVKQLEGKYLVQNRVTGEIYESAQFLYILVAACLFSNYPRETRLQYVKRFYDAVSTFKISLPTPIMSGVRTPTRQFSSCVLIECGDSLDSINATSSAIVKYVSQRAGIGINAGRIRALGSPIRGGEAFHTGCIPFYKHFQTAVKSCSQGGVRGGAATLFYPMWHLEVESLLVLKNNRGVEGNRVRHMDYGVQINKLMYTRLLKGEDITLFSPSDVPGLYDAFFADQEEFERLYTKYEKDDSIRKQRVKAVELFSLMMQERASTGRIYIQNVDHCNTHSPFDPAIAPVRQSNLCLEIALPTKPLNDVNDENGEIALCTLSAFNLGAINNLDELEELAILAVRALDALLDYQDYPIPAAKRGAMGRRTLGIGVINFAYYLAKHGKRYSDGSANNLTHKTFEAIQYYLLKASNELAKEQGACPWFNETTYAKGILPIDTYKKDLDTIANEPLHYDWEALRESIKTHGLRNSTLSALMPSETSSQISNATNGIEPPRGYVSIKASKDGILRQVVPDYEHLHDAYELLWEMPGNDGYLQLVGIMQKFIDQSISANTNYDPSRFPSGKVPMQQLLKDLLTAYKFGVKTLYYQNTRDGAEDAQDDLVPSIQDDGCESGACKI
B2: Y731NH2Y-α2 (E. coli class I ribonucleotide reductase subunit α2 with 3-aminotyrosine at residue 731) (enzyme, UniProt P00452 1-761, looked up)
chain: B1 chain
modifications: 3-aminotyrosine (NH2Y) at position 731 in place of Tyr (E. coli RNR numbering)
B3: Y730NH2Y-α2 (E. coli class I ribonucleotide reductase subunit α2 with 3-aminotyrosine at residue 730) (enzyme, UniProt P00452 1-761, looked up)
chain: B1 chain
modifications: 3-aminotyrosine (NH2Y) at position 730 in place of Tyr (E. coli RNR numbering)

What was measured:
[1] = molecular target: T1, wt β2 (E. coli class I ribonucleotide …)
[2] = molecular target: wt β2 (E. coli class I ribonucleotide reductase subunit β2) (E. coli) (UniProt P69924); assay: cell-based or functional assay

Row | Binder | 1st Phase kobs (SF UV-vis, NH2Y• formation / Y122• loss, with CDP/ATP) [1] | rate constant of NH2Y. formation at 325 nm, fast phase [1] [s⁻¹] | rate constant of NH2Y. formation at 325 nm, slow phase [1] [s⁻¹] | rate constant of Y122. loss at 410 nm, fast phase [1] [s⁻¹] | rate constant of Y122. loss at 410 nm, slow phase [1] [s⁻¹] | 2nd Phase kobs (SF UV-vis, NH2Y• formation / Y122• loss, with CDP/ATP) ([1]; in 1/s) | 1st Phase Ampl (% of total initial Y122• trapped) [2] [%] | 2nd Phase Ampl (% of total initial Y122• trapped) [2] [%] | EPR spin quantitation at 10 s with CDP/ATP: share of remaining spin in NH2Y731. [2] [%] | [NH2Y•] at 20 s in the reaction with β2 and N3ADP/dGTP (EPR) [2] [µM] | total initial Y122. consumed at 2 s [2] [%] | EPR spin quantitation at 10 s with CDP/ATP: share of remaining spin in the new signal (NH2Y730.) [2] [%]
1 | B1 | 12.8 ± 0.8, 20 ± 1 | 13.6 ± 0.1 | 2.5 ± 0.1 | 12.0 ± 0.1 | 2.4 ± 0.1 | 2.5 ± 0.1, 19 ± 1 |  |  |  |  |  | 
2 | B2 |  |  |  |  |  |  | 24 | 11 | 45 | 7.1 | 35 | 
3 | B3 |  |  |  |  |  |  | 20 | 19 |  | 7.6 | 39 | 53
